According to publication PMC5173487 (Nature immunology, 2016):

Columns and labels:
[1] = target: T1, His-tagged EPRS (amino acids 1–196) (human (by GenBank NM_004446.2), UniProt P07814 1-196); experiment: pull-down
T1 sequence (looked up): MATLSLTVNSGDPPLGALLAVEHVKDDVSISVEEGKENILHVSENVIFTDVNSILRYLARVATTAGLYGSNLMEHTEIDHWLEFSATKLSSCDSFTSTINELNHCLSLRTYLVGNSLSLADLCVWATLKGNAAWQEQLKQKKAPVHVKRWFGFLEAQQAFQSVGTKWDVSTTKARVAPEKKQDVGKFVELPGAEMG

[2] = target: GST-fused MAVS (amino acids 460–540) (UniProt Q7Z434 460-540); experiment: pull-down
GST-fused MAVS (amino acids 460–540), sequence (Q7Z434 460-540): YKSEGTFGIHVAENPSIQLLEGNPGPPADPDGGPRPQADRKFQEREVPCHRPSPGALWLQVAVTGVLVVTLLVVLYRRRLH

B1: GST-fused PCBP2 (amino acids 11–82) (domain or fragment, UniProt Q15366 11-82, looked up)
chain: NVTLTIRLLMHGKEVGSIIGKKGESVKKMREESGARINISEGNCPERIITLAGPTNAIFKAFAMIIDKLEED
B1: binds [1].

B2: His-tagged PCBP2 (amino acids 11–82) (domain or fragment, UniProt Q15366 11-82, looked up)
chain: B1 chain
B2: binds [2].
